Data as given in the supplement of paper PMC7125110.
± gives the standard error. Fewer inactive variants are shown than the library holds.

B1: glmS ribozyme (parent)
chain: AUAAAAGCGCCAGAACUACAGAAAUGUAGUUGACGAGGAGGAGGUUUAUCGAAUUUUCGGCGGAUGCCUCCAAA

Assays:
Details in all cases: with glucosamine-6-phosphate
glucosamine-6-phosphate [1] = variants of: B1; test: self-cleavage kobs at 40 uM GlcN6P; higher = faster cleavage; RNA array
How it was run: (§1)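 Barcoded glmS ribozyme variants on sequenced MiSeq chips were transcribed in situ by E. coli RNA polymerase and tracked through a hybridised Cy3 probe at 37 °C. Glucosamine-6-phosphate (40 μM to 10 mM) in HEPES/KCl/Mg(OAc)2 buffer was flowed in, and tiles were imaged over ~14 h. Signals were normalised to baseline and to non-cleaving reference variants; per-tile medians were fit to one- or two-exponential decays to give kobs. kcat and KM came from weighted Michaelis–Menten fits across concentrations.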

glucosamine-6-phosphate [2] = variants of: B1; test: self-cleavage kobs at 640 uM GlcN6P; higher = faster cleavage; RNA array
How it was run: as §1

glucosamine-6-phosphate [3] = variants of: B1; test: self-cleavage kobs at 10000 uM GlcN6P; higher = faster cleavage; RNA array
How it was run: as §1

glucosamine-6-phosphate [4] = variants of: B1; test: self-cleavage kobs at 160 uM GlcN6P; higher = faster cleavage; RNA array
How it was run: as §1

glucosamine-6-phosphate [5] = variants of: B1; test: self-cleavage kobs at 2500 uM GlcN6P; higher = faster cleavage; RNA array
How it was run: as §1

Variant | self-cleavage kobs at 40 uM GlcN6P (glucosamine-6-phosphate [1]) [s⁻¹] | self-cleavage kobs at 640 uM GlcN6P (glucosamine-6-phosphate [2]) [s⁻¹] | self-cleavage kobs at 10000 uM GlcN6P (glucosamine-6-phosphate [3]) [s⁻¹] | self-cleavage kobs at 160 uM GlcN6P (glucosamine-6-phosphate [4]) [s⁻¹] | self-cleavage kobs at 2500 uM GlcN6P (glucosamine-6-phosphate [5]) [s⁻¹]
G40C U49A | < 1e-05 | < 1e-05 | < 1e-05 |  | 
G41U U45C U54G C67U C71G | < 1e-05 | < 1e-05 |  | < 1e-05 | 
U30A G35A G51A G60U | < 1e-05 |  | < 1e-05 |  | 
C8U C10A | < 1e-05 | < 1e-05 | < 1e-05 | < 1e-05 | < 1e-05
G7A C8U | < 1e-05 |  |  |  | 
A36C G51A | < 1e-05 |  | < 1e-05 |  | 
G32A C50G G51A | < 1e-05 |  |  |  | 
G29A G35C A39G G41U G43C G62A A64U | < 1e-05 | < 1e-05 | < 1e-05 |  | < 1e-05
C8U A39U U45G C70G | < 1e-05 |  | < 1e-05 |  | 
C8G G32U G38C G51U | < 1e-05 |  |  |  | 
G13C G44C | < 1e-05 | < 1e-05 | < 1e-05 | < 1e-05 | < 1e-05
A14G A15G A33G G40U | < 1e-05 | < 1e-05 | < 1e-05 |  | 
G32A A52U C71A | < 1e-05 |  |  |  | 
G32U U49G A53C | < 1e-05 |  |  |  | 
G13U A15U G43C U57C C58G | < 1e-05 |  |  |  | 
G7U U65C | < 1e-05 | < 1e-05 | < 1e-05 | < 1e-05 | < 1e-05
C10U G35U C67U | < 1e-05 |  |  |  | 
G43C U57A | < 1e-05 | < 1e-05 | < 1e-05 |  | 
U31C U57G | < 1e-05 |  |  |  | 
G40U U54A | 7.88e-05 ± 1.1e-05 | 0.000391 ± 5.1e-05 | 0.0025 ± 0.00054 | 0.000207 ± 2.7e-05 | 0.00192 ± 0.00039
A39G U45C C67U | 0.000136 ± 5.9e-05 |  | 0.00434 ± 0.0011 |  | 
A36G A53G | < 1e-05 | < 1e-05 |  | < 1e-05 | 
U2C A33G | < 1e-05 |  | < 1e-05 | < 1e-05 | < 1e-05
G37C A42C C71G | < 1e-05 | < 1e-05 | < 1e-05 | < 1e-05 | < 1e-05
A14U A36G C50U C61A | < 1e-05 |  |  |  | 

Variant | self-cleavage kobs at 40 uM GlcN6P (glucosamine-6-phosphate [1]) [s⁻¹] | self-cleavage kobs at 640 uM GlcN6P (glucosamine-6-phosphate [2]) [s⁻¹] | self-cleavage kobs at 10000 uM GlcN6P (glucosamine-6-phosphate [3]) [s⁻¹] | self-cleavage kobs at 160 uM GlcN6P (glucosamine-6-phosphate [4]) [s⁻¹] | self-cleavage kobs at 2500 uM GlcN6P (glucosamine-6-phosphate [5]) [s⁻¹]
A33G G40U G43A U49A C58U | < 1e-05 |  | < 1e-05 |  | 
G37C U65G U69G | < 1e-05 |  | < 1e-05 |  | 
A15G U54A C71A | 0.000174 ± 5.4e-05 |  | 0.00522 ± 0.0014 |  | 
C8U C11U A12C A48G G62A C67U | < 1e-05 |  | < 1e-05 |  | < 1e-05
U31G C34U | < 1e-05 | < 1e-05 | < 1e-05 | < 1e-05 | 
G7C C16G U47A | < 1e-05 |  | < 1e-05 | < 1e-05 | < 1e-05
C8U C50U C58G C61U C67U C68G | 0.000528 ± 0.0001 |  | 0.00105 ± 0.00018 |  | 
A15C G51A | < 1e-05 |  | < 1e-05 | < 1e-05 | 
C58G A64G C68A | 4.76e-05 ± 1.8e-05 | 0.00061 ± 0.00029 |  |  | 5.81e-05 ± 2.1e-05
U31C A48G | < 1e-05 |  |  | < 1e-05 | 
C16U U30A U31G A53U G59U | < 1e-05 |  |  |  | < 1e-05
A33U U49A C71U | < 1e-05 |  | < 1e-05 |  | 
G9U U31G G32C G62A | < 1e-05 |  |  |  | 
A6U G44A C70U | < 1e-05 |  |  |  | 
A12U A39U | 0.00122 ± 0.00014 | 0.0129 ± 0.0047 | 0.0541 ± 0.013 | 0.0029 ± 0.00074 | 0.00925 ± 0.0022
C70A | 0.000267 ± 7.7e-05 | 0.00093 ± 0.00021 | 0.00384 ± 0.0011 | 0.000416 ± 0.00014 | 0.000583 ± 4.1e-05
C11U A36G | < 1e-05 | < 1e-05 |  | < 1e-05 | < 1e-05
A48U G51U U65G C71U | < 1e-05 |  |  |  | < 1e-05
C10A G32C G41A | < 1e-05 |  |  |  | 
G38A C58A G66A | < 1e-05 |  | < 1e-05 |  | 
G40U C61U | < 1e-05 |  |  | < 1e-05 | 
G38A G43U C67U | < 1e-05 |  | < 1e-05 |  | 
C10U G40A A48C | < 1e-05 |  |  |  | 
G7A A39C A52U G60A C67U | < 1e-05 |  |  |  | 
G9U C34A G35C G43U | < 1e-05 |  |  |  | < 1e-05

Variant | self-cleavage kobs at 40 uM GlcN6P (glucosamine-6-phosphate [1]) [s⁻¹] | self-cleavage kobs at 640 uM GlcN6P (glucosamine-6-phosphate [2]) [s⁻¹] | self-cleavage kobs at 10000 uM GlcN6P (glucosamine-6-phosphate [3]) [s⁻¹] | self-cleavage kobs at 160 uM GlcN6P (glucosamine-6-phosphate [4]) [s⁻¹] | self-cleavage kobs at 2500 uM GlcN6P (glucosamine-6-phosphate [5]) [s⁻¹]
A48G C50G C61A | 9.98e-05 ± 2.4e-05 |  | 6.27e-05 ± 1.9e-05 |  | 
U30C G32C G44U C50U | < 1e-05 |  | < 1e-05 |  | 
A14C G29U G38U G44A A64U | < 1e-05 |  | < 1e-05 |  | 
G35C A64U | < 1e-05 | < 1e-05 | < 1e-05 | < 1e-05 | < 1e-05
G29U C50G G60U C67A | 9.35e-05 ± 1.9e-05 |  | 0.000133 ± 3e-05 |  | 
G29A C34U U47G A48G C67G | 0.000265 ± 0.0001 |  | 7.2e-05 ± 3.2e-05 |  | 
A14C U31G A39U | 0.000119 ± 2.4e-05 | 0.0016 ± 0.00039 | 0.0112 ± 0.003 |  | 
G29C C68A | < 1e-05 |  |  |  | 
C8U A53U | < 1e-05 | < 1e-05 | < 1e-05 |  | 
A12C G35U | < 1e-05 | < 1e-05 | < 1e-05 | < 1e-05 | < 1e-05
C34A A39G A64C | < 1e-05 | < 1e-05 | < 1e-05 |  | < 1e-05
A6G G32C C34G C71U | < 1e-05 | < 1e-05 |  | < 1e-05 | 
A12U U54C | 0.00204 ± 0.00025 | 0.0165 ± 0.0024 | 0.0931 ± 0.024 | 0.00477 ± 0.00085 | 0.0157 ± 0.0029
G32C A36U | < 1e-05 | < 1e-05 |  | < 1e-05 | < 1e-05
C11U A48G A53G | < 1e-05 |  | < 1e-05 |  | 
A15C A33C A64U | < 1e-05 |  | < 1e-05 |  | 
A33U A39U G44C G63C C67G | < 1e-05 |  | < 1e-05 |  | 
A39C G43C U47C U49C A64U U65A | < 1e-05 |  |  |  | 
A12C G43C | < 1e-05 | < 1e-05 |  | < 1e-05 | 
G40C G43U C70A | < 1e-05 |  | < 1e-05 |  | 
G7U C10G C68G | 0.000171 ± 5.8e-05 |  | 5.21e-05 ± 1.6e-05 |  | 
C8U G9U | < 1e-05 | < 1e-05 |  | < 1e-05 | < 1e-05
A42U C58A | < 1e-05 | < 1e-05 |  | < 1e-05 | 
U30C A52U | < 1e-05 | < 1e-05 |  |  | 
A6U C8G A36G U45A A64U | < 1e-05 | < 1e-05 |  |  | 

Variant | self-cleavage kobs at 40 uM GlcN6P (glucosamine-6-phosphate [1]) [s⁻¹] | self-cleavage kobs at 640 uM GlcN6P (glucosamine-6-phosphate [2]) [s⁻¹] | self-cleavage kobs at 10000 uM GlcN6P (glucosamine-6-phosphate [3]) [s⁻¹] | self-cleavage kobs at 160 uM GlcN6P (glucosamine-6-phosphate [4]) [s⁻¹] | self-cleavage kobs at 2500 uM GlcN6P (glucosamine-6-phosphate [5]) [s⁻¹]
A6U A33U | < 1e-05 | < 1e-05 | < 1e-05 |  | < 1e-05
U47A C50A U54A | < 1e-05 |  |  |  | 
U56C G59C C68G | < 1e-05 |  | < 1e-05 |  | 
G41C U49A | < 1e-05 | < 1e-05 |  | < 1e-05 | < 1e-05
G37C A64C C68U | < 1e-05 |  | < 1e-05 |  | < 1e-05
A14U A15G G43C | < 1e-05 | < 1e-05 |  |  | < 1e-05
U30C U45G | < 1e-05 |  |  | < 1e-05 | 
G7U C8G A12U U49G | < 1e-05 | < 1e-05 | < 1e-05 | < 1e-05 | < 1e-05
C11U A33C A52G C67A | < 1e-05 |  |  |  | 
C11G U31A | < 1e-05 | < 1e-05 |  | < 1e-05 | 
A6G C61A | < 1e-05 |  | < 1e-05 |  | < 1e-05
C8U A12C A15G C67U | < 1e-05 |  | < 1e-05 |  | 
C8A A53G | < 1e-05 | < 1e-05 | < 1e-05 | < 1e-05 | < 1e-05
G7U A14G | < 1e-05 | < 1e-05 | < 1e-05 | < 1e-05 | 
G37U G40U C67G | < 1e-05 | < 1e-05 |  |  | < 1e-05
G7C G9C U31C G40A | < 1e-05 |  | < 1e-05 |  | 
G13A A33G | < 1e-05 | < 1e-05 |  |  | 
A6C A15U A36C G43A U46G C50U A53U C61U | < 1e-05 | < 1e-05 | < 1e-05 |  | < 1e-05
A14C U55G | 9.05e-05 ± 2.8e-05 |  | 0.00435 ± 0.0012 |  | 
C10A G66U | < 1e-05 |  |  | < 1e-05 | 
G43A G44U U55C | < 1e-05 |  | < 1e-05 |  | 
G7U C10A G60U | < 1e-05 |  |  | < 1e-05 | < 1e-05
